Bridges are numbered along the chain shown (N, C = ends). Where no end group is shown, it is not given here. [ ]: non-standard residue; d: D form. The star is where a group is joined. Acetyl(2-(4-imidazolyl)) = O=C(Cc1c[nH]cn1)*; Aib = CC(C)(N)C(=O)O
T1: human GIP receptor (human, UniProt P48546 22-466)
T1 sequence (looked up): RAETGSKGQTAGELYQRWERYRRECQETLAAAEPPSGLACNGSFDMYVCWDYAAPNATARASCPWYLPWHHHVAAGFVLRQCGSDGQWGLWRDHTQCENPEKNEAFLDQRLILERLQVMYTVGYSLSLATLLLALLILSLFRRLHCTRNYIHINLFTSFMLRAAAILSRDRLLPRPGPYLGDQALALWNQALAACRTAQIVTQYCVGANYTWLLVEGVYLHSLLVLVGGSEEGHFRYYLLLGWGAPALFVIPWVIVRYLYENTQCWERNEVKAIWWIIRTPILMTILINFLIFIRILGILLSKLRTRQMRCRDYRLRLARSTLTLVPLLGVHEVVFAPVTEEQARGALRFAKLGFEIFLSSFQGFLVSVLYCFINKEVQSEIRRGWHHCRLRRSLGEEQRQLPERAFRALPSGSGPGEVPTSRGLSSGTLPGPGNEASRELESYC


What was measured:
Experiment in all cases: cell-based or functional assay
[1] = molecular target: T1, human GIP receptor
[2] = molecular target: human GCG receptor (human, UniProt P47871 26-477)
[3] = molecular target: human GLP-1 receptor (human, UniProt P43220 24-463)

human GCG receptor, sequence (P47871 26-477): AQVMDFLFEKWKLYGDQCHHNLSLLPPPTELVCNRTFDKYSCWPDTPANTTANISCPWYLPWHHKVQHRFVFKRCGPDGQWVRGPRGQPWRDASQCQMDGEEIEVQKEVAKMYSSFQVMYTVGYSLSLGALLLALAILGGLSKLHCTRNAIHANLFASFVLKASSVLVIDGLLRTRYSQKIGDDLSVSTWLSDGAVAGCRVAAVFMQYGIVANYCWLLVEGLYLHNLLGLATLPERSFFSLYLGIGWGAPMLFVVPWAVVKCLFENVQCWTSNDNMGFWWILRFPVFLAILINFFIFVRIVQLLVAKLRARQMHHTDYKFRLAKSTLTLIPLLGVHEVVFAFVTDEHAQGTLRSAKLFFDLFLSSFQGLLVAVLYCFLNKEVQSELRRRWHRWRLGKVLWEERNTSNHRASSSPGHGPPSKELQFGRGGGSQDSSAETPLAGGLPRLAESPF

| Binder | In vitro activity compared with native peptide (%) vs. GIP [1] [%] | In vitro activity compared with native peptide (%) vs. Glucagon [2] [%] | In vitro activity compared with native peptide (%) vs. GLP-1 [3] [%] |
| --- | --- | --- | --- |
| H[Aib]QGTFTSDKSKYLDERACQDFVQWLLDGGPSSGAPPPS [Triple agonist of SEQ ID NO: 40] | < 0.1 | < 0.1 | 75.2 |
| H[Aib]QGTFTSDKSKYLDECAAQDFVQWLLDGGPSSGAPPPS [Triple agonist of SEQ ID NO: 41] | < 0.1 | < 0.1 | 34.3 |
| {Acetyl(2-(4-imidazolyl))}-[Aib]QGTFTSDYSIAMDEKHCKDFVNWLLNTK (bridge 15-19) [Triple agonist of SEQ ID NO: 60] | 8.2 | < 0.1 | 106 |
| H[Aib]QGTFTSDYSKYLDGQHAQCFVAWLLAGGGPSSGAPPPS [Triple agonist of SEQ ID NO: 39] | < 0.1 | 0.53 | 13.9 |
| H[Aib]QGTFTSDYSKYLDEKRQKEFVQWLLDTC (bridge 16-20) [Triple agonist of SEQ ID NO: 52] | 0.3 | 7.5 | 44.1 |
| H[Aib]QGTFTSDYSKYLDEKRQKEFVQWLLNTC (bridge 16-20) [Triple agonist of SEQ ID NO: 51] | 0.1 | 2 | 14.4 |
| H[Aib]QGTFTSDYSKYLDECRQKEFVQWLLNGGPSSGAPPPSG (bridge 16-20) [Triple agonist of SEQ ID NO: 37] | 2.2 | 6.21 | 236 |
| H[Aib]QGTFTSDYSKYLDEKRAKEFVQWLLDHHPSSGQPPPSC (bridge 16-20) [Triple agonist of SEQ ID NO: 50] | 2.7 | 50.5 | 67.4 |
| H[Aib]QGTFTSDYSIAMDEIHQKDFVNWLLNTKC (bridge 16-20) [Triple agonist of SEQ ID NO: 35] | 1.3 | < 0.1 | 7.5 |
| H[Aib]QGTFTSDYSKYLDEKRQKEFVQWLLNTKC (bridge 16-20) [Triple agonist of SEQ ID NO: 58] | 0.2 | 2.6 | 39.1 |
| H[Aib]QGTFTSDYSKYLCEKRQKEFVQWLLNGGPSSGAPPPSG (bridge 16-20) [Triple agonist of SEQ ID NO: 36] | 0.2 | 0.39 | 37.4 |
| H[Aib]QGTFTSDVSSYLDGQAAKEFVAWLLKGC [Triple agonist of SEQ ID NO: 6] | < 0.1 | < 0.1 | 17 |
| H[Aib]EGTFTSDYSIAMDEIHQKDFVNWLLAQC (bridge 16-20) [Triple agonist of SEQ ID NO: 53] | 1.3 | 8.4 | 161 |
| H[Aib]QGTFTSDVSSYLLGQQQKEFIAWLVKGC [Triple agonist of SEQ ID NO: 4] | < 0.1 | < 0.1 | 8.5 |
| [Acetyl(2-(4-imidazolyl))][Aib]QGTFTSDKSSYLDERAAQDFVQWLLDGGPSSGAPPPSS [Triple agonist of SEQ ID NO: 38] |  |  | 2.3 |
| H[Aib]QGTFTSDVSSYLLGQQQKEFIAWLVKGGGPSSGAPPPSC [Triple agonist of SEQ ID NO: 5] | < 0.1 | < 0.1 | 42.1 |
| HGQGTFTSDCSKQLDGQAAQEFVAWLLAGGPSSGAPPPS [Triple agonist of SEQ ID NO: 44] | < 0.1 | < 0.1 | 1.3 |
| HGQGTFTSDCSKYLDEQHAQEFVAWLLAGGPSSGAPPPS [Triple agonist of SEQ ID NO: 46] | < 0.1 | < 0.1 | 1.4 |
| HGQGTFTSDCSKYMDGQAAQDFVAWLLAGGPSSGAPPPS [Triple agonist of SEQ ID NO: 45] | < 0.1 | < 0.1 | 6.6 |
| HGQGTFTSDCSKYLDGQRAQEFVAWLLAGGPSSGAPPPS [Triple agonist of SEQ ID NO: 47] | < 0.1 | < 0.1 | 2.4 |
| HGQGTFTSDCSKYLDGQRAQDFVNWLLAGGPSSGAPPPS [Triple agonist of SEQ ID NO: 48] | < 0.1 | < 0.1 | 1.5 |
| Y[Aib]QGTFTSDYSKYLDEKRAKEFVQWLLDHHCSSGQPPPS (bridge 16-20) [Triple agonist of SEQ ID NO: 43] | 3.7 | 88.4 | 12.6 |
| Y[Aib]QGTFTSDYSKYLDEKRAKEFVQWLLDHHPSSGQPPPSC (bridge 16-20) [Triple agonist of SEQ ID NO: 42] | 7.8 | 206 | 33.9 |
| {Acetyl(2-(4-imidazolyl))}-[Aib]QGTFTSDYSICMDEKHQKDFVNWLLNTK (bridge 15-19) [Triple agonist of SEQ ID NO: 59] | 4 | < 0.1 | 40.3 |
| H[Aib]EGTFTSDYSIAMDEIHQKDFVDWLLAEC (bridge 16-20) [Triple agonist of SEQ ID NO: 54] | 0.1 | 1.4 | 30.6 |
| H[Aib]QGTFTSDYSKYLDEKRQKEFVNWLLAQKC (bridge 16-20) [Triple agonist of SEQ ID NO: 34] | 0.6 | 0.92 | 19.1 |
| H[Aib]QGTFTSDYSIAMDEIHQKDFVNWLLAQC (bridge 16-20) [Triple agonist of SEQ ID NO: 55] | 2.4 | 0.7 | 27.1 |
| H[Aib]QGTFTSDYSIAMDEIHQKDFVNWLLNTC (bridge 16-20) [Triple agonist of SEQ ID NO: 57] | 0.3 | < 0.1 | 11.7 |
| H[Aib]QGTFTSDYSKYLDEKRQKEFVNWLLAQC (also: ring formation, positions not given here) [Triple agonist of SEQ ID NO: 56] | 0.8 | 4.9 | 57.9 |
| {Acetyl(2-(4-imidazolyl))}-[Aib]QGTFTSDYSICMDEIHQKDFVNWLLNTK (bridge 15-19) [Triple agonist of SEQ ID NO: 49] | 3.3 | < 0.1 | 29.8 |

— patent publication US20240024426A1, “HYPOTENSIVE PHARMACEUTICAL COMPOSITION COMPRISING TRIPLE ACTIVATOR HAVING ACTIVITY FOR ALL OF GLUCAGON, GLP-1, AND GIP RECEPTORS” (HANMI PHARM. CO., LTD., priority 2020, published 2024)
